Measured values reported in publication PMC2241622, “Aminopeptidase B, a glucagon-processing enzyme: site directed mutagenesis of the Zn^2+-binding motif and molecular modelling” (BMC Biochemistry, 2007).
Read-outs that look alike come from different tables or passages of the source.

Assays:
[1] = target: T1, Aminopeptidase B (His-rAp-B) (Rattus norvegicus, UniProt O09175); experiment: L-Arg-β-NA hydrolysis assay with recombinant enzyme; Ki and percent inhibition ([…] at […]); type: biochemical
T1 construct: gene Rnpep; His-tagged full-length rat Ap-B (673 residues incl. His-tag/Factor Xa site; 650-residue Ap-B) from E. coli
T1 sequence (O09175 1-650): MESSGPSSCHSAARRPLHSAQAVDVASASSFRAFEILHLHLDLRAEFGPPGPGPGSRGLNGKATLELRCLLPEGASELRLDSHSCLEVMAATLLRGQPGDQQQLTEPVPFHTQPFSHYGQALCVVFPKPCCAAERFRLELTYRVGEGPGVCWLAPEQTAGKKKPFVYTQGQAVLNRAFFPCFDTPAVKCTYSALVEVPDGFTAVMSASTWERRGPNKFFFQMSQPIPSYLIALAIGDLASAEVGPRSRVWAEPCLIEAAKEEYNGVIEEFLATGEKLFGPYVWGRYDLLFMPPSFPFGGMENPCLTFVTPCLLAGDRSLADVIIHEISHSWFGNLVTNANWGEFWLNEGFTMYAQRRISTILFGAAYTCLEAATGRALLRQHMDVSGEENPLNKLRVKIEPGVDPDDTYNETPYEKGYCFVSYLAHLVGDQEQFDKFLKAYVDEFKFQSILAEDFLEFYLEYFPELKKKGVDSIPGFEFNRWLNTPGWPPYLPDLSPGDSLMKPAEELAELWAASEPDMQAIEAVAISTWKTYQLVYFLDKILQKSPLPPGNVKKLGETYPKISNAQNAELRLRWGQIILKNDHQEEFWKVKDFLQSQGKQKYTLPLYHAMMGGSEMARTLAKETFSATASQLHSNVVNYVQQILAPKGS

[2] = target: T1, Aminopeptidase B (His-rAp-B); experiment: as above; type: biochemical; remark: listed apart in the source
[3] = target: T1, Aminopeptidase B (His-rAp-B); experiment: as above; type: biochemical; remark: listed apart in the source
purified protein [4] = substrate: N=C(N)NCCC[C@H](N)C(=O)Nc1ccc2ccccc2c1; experiment: purified protein; type: biochemical, Rattus norvegicus; settings: Zn2+
purified protein [5] = substrate: NCCCC[C@H](N)C(=O)Nc1ccc2ccccc2c1; experiment: purified protein; type: biochemical, Rattus norvegicus; settings: Zn2+

NC(N)=NCCC[C@H](N)C(=O)C[C@@H](Cc1ccccc1)C(=O)O [Arphamenine A]
Ki [1]: 20 nM

CC(C)C[C@H](NC(=O)[C@@H](O)[C@H](N)Cc1ccccc1)C(=O)O [Bestatin]
Ki [2]: 50 nM

N=C(N)NCCC[C@H](N)C(=O)C[C@@H](Cc1ccc(O)cc1)C(=O)O [Arphamenine B]
Ki [3]: 20 nM

B1: Aminopeptidase B (His-rAp-B) (Rattus norvegicus) (protein)
chain: MESSGPSSCHSAARRPLHSAQAVDVASASSFRAFEILHLHLDLRAEFGPPGPGPGSRGLNGKATLELRCLLPEGASELRLDSHSCLEVMAATLLRGQPGDQQQLTEPVPFHTQPFSHYGQALCVVFPKPCCAAERFRLELTYRVGEGPGVCWLAPEQTAGKKKPFVYTQGQAVLNRAFFPCFDTPAVKCTYSALVEVPDGFTAVMSASTWERRGPNKFFFQMSQPIPSYLIALAIGDLASAEVGPRSRVWAEPCLIEAAKEEYNGVIEEFLATGEKLFGPYVWGRYDLLFMPPSFPFGGMENPCLTFVTPCLLAGDRSLADVIIHEISHSWFGNLVTNANWGEFWLNEGFTMYAQRRISTILFGAAYTCLEAATGRALLRQHMDVSGEENPLNKLRVKIEPGVDPDDTYNETPYEKGYCFVSYLAHLVGDQEQFDKFLKAYVDEFKFQSILAEDFLEFYLEYFPELKKKGVDSIPGFEFNRWLNTPGWPPYLPDLSPGDSLMKPAEELAELWAASEPDMQAIEAVAISTWKTYQLVYFLDKILQKSPLPPGNVKKLGETYPKISNAQNAELRLRWGQIILKNDHQEEFWKVKDFLQSQGKQKYTLPLYHAMMGGSEMARTLAKETFSATASQLHSNVVNYVQQILAPKGS
notes: His-tagged full-length rat Ap-B (673 residues incl. His-tag/Factor Xa site; 650-residue Ap-B) from E. coli, Ni-NTA purified
Km (purified protein [4]): 108 ± 13 µM | Vmax (purified protein [4]): 8.76 µM/min | kcat (purified protein [4]): 20 ± 3 s⁻¹ | kcat/Km (purified protein [4]): 185000 M⁻¹ s⁻¹ | Km (purified protein [5]): 135 ± 30 µM | Vmax (purified protein [5]): 3.9 µM/min | kcat (purified protein [5]): 3 ± 0.35 s⁻¹ | kcat/Km (purified protein [5]): 22000 ± 2000 M⁻¹ s⁻¹
